In the Immune Epitope Database (IEDB):

Tests used:
HLA-B*08:01 [1] = assay: IEDB peptide-MHC binding, purified MHC/competitive/radioactivity; filed as Kd, often an IC50 or EC50 that approximates it; ≥ and ≤ were set here for values at or beyond the usual limits of such assays
HLA-B*35:01 = assay: as above
HLA-B*51:01 = assay: as above
HLA-B*07:02 = assay: IEDB peptide-MHC binding, purified MHC/direct/fluorescence; filed as Kd, often an IC50 or EC50 that approximates it; ≥ and ≤ were set here for values at or beyond the usual limits of such assays
HLA-B*27:05 = assay: as above; conditions: source organism: Tacaribe virus strain V7
HLA-A*24:02 = assay: IEDB peptide-MHC binding, purified MHC/competitive/fluorescence; ≥ and ≤ were set here for values at or beyond the usual limits of such assays
HLA-A*02:01 [2] = assay: as above
HLA-A*02:01 [3] = assay: IEDB peptide-MHC binding, purified MHC/competitive/radioactivity; filed as Kd, often an IC50 or EC50 that approximates it; ≥ and ≤ were set here for values at or beyond the usual limits of such assays
HLA-A*02:01 [4] = assay: IEDB peptide-MHC binding, purified MHC/competitive/fluorescence; filed as Kd, often an IC50 or EC50 that approximates it; ≥ and ≤ were set here for values at or beyond the usual limits of such assays
HLA-B*08:01 [5] = assay: IEDB peptide-MHC binding, purified MHC/direct/fluorescence; filed as Kd, often an IC50 or EC50 that approximates it; ≥ and ≤ were set here for values at or beyond the usual limits of such assays
HLA-B*15:01 = assay: as above; conditions: source organism: SARS-CoV1
HLA-B*58:01 = assay: as above; conditions: source organism: SARS-CoV1
HLA-B*40:01 = assay: as above; conditions: source organism: SARS-CoV1
HLA-A*11:01 = assay: as above; conditions: source organism: SARS-CoV1
HLA-A*69:01 = assay: as above; conditions: source organism: SARS-CoV1
[6] = source organism: Dengue virus 4 Philippines/H241/1956
[7] = source organism: Dengue virus 3 Martinique/1243/1999
[8] = source organism: Dengue virus 2 Jamaica/1409/1983
[9] = source organism: Zaire ebolavirus
[10] = source organism: Dengue virus 1 Singapore/S275/1990
[11] = source organism: Vaccinia virus WR
[12] = source organism: Sudan ebolavirus
[13] = source organism: Dengue virus 1 Brazil/97-11/1997

INRKGKVIGL was tested, and the Kd (HLA-B*08:01 [1]; [6]) was 3.66 µM.
IPFSTEDGQG was tested, and the Kd (HLA-B*35:01; [7]) was 1.73 µM.
Work on IPITAAAWYL yielded a Kd (HLA-B*08:01 [1]; [8]) of 3.76 µM and a Kd (HLA-B*51:01; [8]) of 6.23 µM.
IPRRIRQGL gave a Kd (HLA-B*07:02; source organism: Human immunodeficiency virus type 1 (WMJ2 ISOLATE)) of 0.0948 µM.
Sequence IRELMSVPY has a Kd (HLA-B*27:05) of at least 20 µM.
KIDQIIHDF showed an IC50 (HLA-A*24:02; [9]) of 46.9 µM and an IC50 (HLA-A*02:01 [2]; [9]) of 66.4 µM.
Work on KRTLAAMPE yielded an IC50 (HLA-A*24:02; [9]) of 42.9 µM.
LAKRFSRGL was tested, and the Kd (HLA-B*08:01 [1]; source organism: Dengue virus 3 Singapore/8120/1995) was 0.962 µM.
For LAVSGVYPL, the Kd (HLA-B*35:01; [10]) was 0.0832 µM.
Sequence LEHGLFPQL has an IC50 (HLA-A*24:02; [9]) of 8.3 µM and an IC50 (HLA-A*02:01 [2]; [9]) of at least 73.2 µM.
LFLPKLVVG was tested, and the IC50 (HLA-A*24:02; [9]) was 1.56 µM and the IC50 (HLA-A*02:01 [2]; [9]) was 35.3 µM.
Sequence LLGCAANWI has a Kd (HLA-A*02:01 [3]; source organism: Hepatitis B virus subtype ayw) of at least 5 µM.
LLGPVIGML was tested, and the Kd (HLA-A*02:01 [4]; source organism: Escherichia coli 536) was 0.0034 µM.
Sequence LMTLKDAML has a Kd (HLA-A*02:01 [3]; source organism: Lassa virus Josiah) of 0.893 µM.
In the case of LPMLYFLYV, the Kd (HLA-B*08:01 [1]; [11]) is reported as 0.00251 µM.
LYDRLASTV showed an IC50 (HLA-A*24:02; [12]) of 1.32 µM and an IC50 (HLA-A*02:01 [2]; [12]) of 7.48 µM.
MLLCHKPTL was tested, and the Kd (HLA-B*08:01 [1]; [11]) was 0.0187 µM.
MPTYKHLIM gave a Kd (HLA-B*08:01 [1]; [11]) of 0.00013 µM.
Work on MVQADSGCVV yielded a Kd (HLA-B*51:01; [8]) of at least 30.5 µM.
MYKSRVERV showed a Kd (HLA-B*08:01 [1]; [11]) of 0.0465 µM.
NAPDDLVLF showed an IC50 (HLA-A*24:02; [9]) of at least 107 µM.
NLATSIYTI was tested, and the Kd (HLA-A*02:01 [4]; source organism: Variola virus) was 0.0011 µM.
Sequence NMKFKNSVE has a Kd (HLA-B*08:01 [1]; [11]) of 1.34 µM.
With NPKFFKVYL the Kd (HLA-B*08:01 [1]; [11]) was 0.19 µM.
NQATTKTTF gave a Kd (HLA-B*08:01 [5]; source organism: SARS-CoV1) of 7.15 µM, a Kd (HLA-B*07:02; source organism: SARS-CoV1) of 19.8 µM and a Kd (HLA-B*15:01) of 0.203 µM. It also gave a Kd (HLA-B*58:01) of 9.27 µM, a Kd (HLA-B*40:01) of at least 57.3 µM and a Kd (HLA-A*11:01) of at least 79.9 µM.
With PWLTEKEAM the IC50 (HLA-A*24:02; [9]) was 0.435 µM and the IC50 (HLA-A*02:01 [2]; [9]) was at least 216 µM.
QLVKGFERFQ showed a Kd (HLA-A*02:01 [4]; source organism: Variola virus) of 0.634 µM.
QVKDEKLNL gave a Kd (HLA-A*02:01 [4]; source organism: Variola virus) of 0.324 µM.
In the case of RNALDNLAVL, the Kd (HLA-B*08:01 [1]; source organism: Dengue virus 2 16681-PDK53) is reported as 6.43 µM.
RPRHQGVMV was tested, and the Kd (HLA-B*07:02; source organism: Homo sapiens) was 0.0515 µM.
For RTNDWDFVV, the Kd (HLA-A*02:01 [3]; source organism: dengue virus type 2) was 0.167 µM.
Work on SIFLIFSII yielded a Kd (HLA-B*08:01 [1]; source organism: Vaccinia virus Copenhagen) of 0.858 µM.
In the case of SIHAHHQWM, the Kd (HLA-B*08:01 [1]; [13]) is reported as 0.349 µM.
With SIRYRQRLI the Kd (HLA-B*08:01 [1]; [11]) was 0.218 µM.
With SIVSPFIPLL the Kd (HLA-A*02:01 [3]; source organism: Hepatitis B virus) was at least 25 µM.
Sequence SKSTDFLDP has an IC50 (HLA-A*24:02; [9]) of at least 592 µM.
SLLMWITQCFL showed a Kd (HLA-A*02:01 [3]; source organism: Homo sapiens) of at least 50 µM.
For SPIINREGKV, the Kd (HLA-B*51:01; [7]) was at least 69.6 µM.
Sequence SSKYYIKNI has an IC50 (HLA-A*24:02; source organism: Vaccinia virus) of at least 1450 µM.
In the case of TMYYKDVTV, the Kd (HLA-A*02:01 [3]; source organism: Human alphaherpesvirus 1 strain 17) is reported as 0.025 µM.
For TTLPVNVAF, the Kd (HLA-B*07:02; source organism: SARS-CoV1) was 5.76 µM, the Kd (HLA-B*15:01) was 1.76 µM and the Kd (HLA-B*58:01) was 0.329 µM. For the same sequence, the Kd (HLA-A*11:01) was at least 27.3 µM and the Kd (HLA-A*69:01) was 0.02 µM.
For VHEHDQIGD, the IC50 (HLA-A*24:02; source organism: Variola virus) was 1.87 µM.
VKPKGKVVDL was tested, and the Kd (HLA-B*08:01 [1]; [6]) was 2.15 µM.
VYQVNNLEE showed an IC50 (HLA-A*24:02; [9]) of at least 254 µM.
For WALCEALTL, the Kd (HLA-B*35:01; [8]) was 0.641 µM.
For WALCESITL, the Kd (HLA-B*35:01; [13]) was 0.0757 µM.
WPLNEGIMAV was tested, and the Kd (HLA-B*51:01; [10]) was 0.304 µM.
YLKWRWLHF was tested, and the Kd (HLA-B*08:01 [5]; source organism: Burkholderia mallei ATCC 23344) was 0.002 µM.
For YRGTTFAEG, the IC50 (HLA-A*24:02; [9]) was at least 147 µM.
